Patent US20240076386A1 (Pfizer, published 2024)

What was measured:
[1] = target: T1, human E-selectin, cell-surface expressed (human, UniProt P16581 22-610); assay: neutralization of sialyl Lewis A ligand binding, CHO cells, competition ELISA
T1 construct: also called CHO-human E-selectin cells; human CHO-E
T1 sequence: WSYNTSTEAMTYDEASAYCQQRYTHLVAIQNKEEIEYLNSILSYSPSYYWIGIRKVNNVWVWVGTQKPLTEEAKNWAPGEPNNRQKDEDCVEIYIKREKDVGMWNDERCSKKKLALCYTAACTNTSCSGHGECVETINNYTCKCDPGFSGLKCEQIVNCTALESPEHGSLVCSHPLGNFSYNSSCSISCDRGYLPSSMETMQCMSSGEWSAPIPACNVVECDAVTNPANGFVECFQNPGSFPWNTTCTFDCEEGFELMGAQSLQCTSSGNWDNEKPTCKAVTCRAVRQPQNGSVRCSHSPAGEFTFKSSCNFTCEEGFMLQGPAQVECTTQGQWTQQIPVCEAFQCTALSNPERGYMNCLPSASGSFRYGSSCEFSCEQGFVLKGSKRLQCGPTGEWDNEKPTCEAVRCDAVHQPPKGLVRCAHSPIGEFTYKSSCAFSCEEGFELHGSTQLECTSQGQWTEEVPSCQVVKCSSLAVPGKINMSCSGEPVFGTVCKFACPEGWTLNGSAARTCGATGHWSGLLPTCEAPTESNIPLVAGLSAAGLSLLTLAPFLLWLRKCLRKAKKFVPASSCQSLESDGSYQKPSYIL
Protocol: (§1) In a static ligand cellular adhesion assay, horse radish peroxidase (HRP) conjugated E-selectin ligand (sialyl Lewis antigen) and E-selectin antibodies compete for binding to human or cynomolgus E-selectin expressed on Chinese hamster ovary (CHO) cells. The ability of anti-E-selectin antibodies to neutralize ligand binding was assessed in a static neutralization assay using a competition enzyme-linked immunosorbent assay (ELISA) to evaluate the neutralization of the sialyl Lewis antigen to Chinese hamster ovary cells (CHO) engineered to express human or cynomolgus monkey E-selectin.
(§2) CHO cells expressing E-selectin were seeded at 12,500 cells per well into a 96 well tissue culture plate and incubated at 37° C., 5% CO₂ for 48 hours to form a confluent monolayer. Plates were subsequently washed twice with 200 μL of calcium magnesium free PBS. Anti-E-selectin antibodies or an IgG1 isotype control (IgG control) were added to the assay in the presence of a small synthetic conjugate of biotinylated, sialyl Lewis A polyacrylamide (Carbosynth LLC, OS45446) or sialyl Lewis X polyacrylamide (Glycotech, 01-045) with streptavidin/horseradish peroxidase (100 μL total) and incubated at 37° C., 5% CO₂ for 2 hours. […] Reactions were stopped using 2 M of sulfuric acid and absorbance was read at 450 nm (Spectramax M5e). Data were analyzed and graphed using GraphPad Prism software (Version 8.0.2).

[2] = target: T2, cynomolgus monkey E-selectin, cell-surface expressed (cynomolgus monkey, UniProt P16581 22-610 (human entry)); assay: as above
T2 construct: also called CHO-cynomolgus monkey E-selectin cells; cynomolgus monkey CHO-E
T2 chain: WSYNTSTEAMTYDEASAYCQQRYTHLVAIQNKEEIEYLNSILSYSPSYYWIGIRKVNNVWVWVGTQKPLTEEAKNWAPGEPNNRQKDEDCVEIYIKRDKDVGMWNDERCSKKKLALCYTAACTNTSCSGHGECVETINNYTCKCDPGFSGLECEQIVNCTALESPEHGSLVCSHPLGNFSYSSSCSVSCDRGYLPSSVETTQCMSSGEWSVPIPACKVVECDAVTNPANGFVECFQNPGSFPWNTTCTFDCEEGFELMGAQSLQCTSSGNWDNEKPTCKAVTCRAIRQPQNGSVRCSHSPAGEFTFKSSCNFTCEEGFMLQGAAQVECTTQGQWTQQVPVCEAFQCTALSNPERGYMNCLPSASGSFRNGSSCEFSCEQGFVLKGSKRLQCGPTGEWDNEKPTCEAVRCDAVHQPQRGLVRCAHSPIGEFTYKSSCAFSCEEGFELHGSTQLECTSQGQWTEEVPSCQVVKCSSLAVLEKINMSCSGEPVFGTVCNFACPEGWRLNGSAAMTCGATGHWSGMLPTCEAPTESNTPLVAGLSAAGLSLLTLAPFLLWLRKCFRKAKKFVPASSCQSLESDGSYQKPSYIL
Protocol: as §1, §2

[3] = target: T3, recombinant histidine-tagged human E-selectin (Sino Biologicals; 13025-H08H) (human, UniProt P16581 22-556); assay: neutralization of sialyl Lewis A ligand binding, soluble recombinant protein, competition ELISA
T3 construct: also called recombinant human E-selectin; soluble recombinant human E-selectin
T3 sequence (looked up): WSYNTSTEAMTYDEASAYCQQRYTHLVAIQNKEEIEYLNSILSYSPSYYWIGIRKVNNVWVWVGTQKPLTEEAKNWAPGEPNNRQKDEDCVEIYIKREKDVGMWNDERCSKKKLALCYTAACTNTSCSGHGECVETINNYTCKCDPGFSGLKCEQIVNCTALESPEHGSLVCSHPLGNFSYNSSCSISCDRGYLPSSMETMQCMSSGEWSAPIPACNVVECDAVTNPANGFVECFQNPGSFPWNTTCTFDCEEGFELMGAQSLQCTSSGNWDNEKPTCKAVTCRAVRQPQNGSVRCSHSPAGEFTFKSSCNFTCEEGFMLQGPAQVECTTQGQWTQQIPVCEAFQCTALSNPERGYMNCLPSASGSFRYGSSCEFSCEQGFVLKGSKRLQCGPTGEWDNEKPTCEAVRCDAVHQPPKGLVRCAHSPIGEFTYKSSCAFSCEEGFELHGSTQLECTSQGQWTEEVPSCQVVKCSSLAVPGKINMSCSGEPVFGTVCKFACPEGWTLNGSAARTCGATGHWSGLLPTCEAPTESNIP
Protocol: Recombinant histidine-tagged E-selectin; cynomolgus monkey E-selectin (Sino Biologicals; 190169-C08H) and human E-selectin (Sino Biologicals; 13025-H08H) stock solutions were prepared to a final concentration of 3 μg/mL in phosphate buffered saline (PBS) without calcium and magnesium. One hundred μL per well of the diluted recombinant E-selectin protein was added into a Ni-NTA HisSorb 96 well plate (Qiagen, 35061) and plates were incubated on an orbital shaker at room temperature for 2 hours. Sialyl Lewis A polyacrylamide biotin, a synthetic E-selectin ligand (GlycoTech corporation 01-044), was conjugated to streptavidin HRP (horse radish peroxidase) (Ultra Streptavidin HRP, Thermo Scientific N504) and diluted in assay diluent containing 2 mM calcium chloride (BD OptEIA buffer; BD Biosciences, 555213).

- IC50 [1]: 1.88 to 2.89 nM
- IC50 [2]: 1.47 to 2.65 nM
- IC50 [3]: 2.87 to 3.01 nM
B1: optimized anti-E-selectin antibody 1444 (antibody, human IgG1, kappa, V domains shown)
VH: EVQLVESGGGLVQPGGSLRLSCAASGYAIRSAYMHWVRQAPGKGLEWVARIDPANGNTIYVDSVTGRFTISADNAKNSAYLQMNSLRAEDTAVYYCAMDLYSTSEYWGQGTLVTVSS
VL: DIQMTQSPSSLSASVGDRVTITCKTSQNIERYLNWYQQKPGKAPKLLIYAASSLQSGVPSRFSGSGSGTDFTLTISSLQPEDFATYFCLQDNAWPLTFGQGTKVEIKR
notes: effector-null human IgG1, kappa
